Experimental data as given in patent US12521446B2, “Anti-CEACAM5 antibody drug conjugates” (Bristol-Myers Squibb Company, priority 2024, dated 2026).
Substitutions are numbered along the chain they refer to.

Key:
HCT116-cyCEACAM5 = experiment: Internalization of progeny antibodies (Incucyte, pHrodo red), Example 9; assay type: cell-based, cynomolgus; conditions: hIgG1.3 progeny, 25 nM mAb, Table 13A
Protocol: (§1) Antibodies were evaluated for internalization using HCT-116-huCEACAM5, HCT-116-cyCEACAM5, and MKN45 cell lines.
(§2) Cell lines were first analyzed for cell density and viability using a Vi-cell viability machine. The cell lines were diluted to 0.2E6 vc/mL in growth media, and a volume (50 uL) of each was dispensed to a flat-bottom 96-well plate to achieve cell counts of 10K cells/well. Ls174T media included MEM with 10% HI-FBS and 1% pen/strep. MKN45 media included RPMI (ATCC modification) with 10% HI-FBS and 1% pen/strep. HCT-116 media included McCoy's 5a with 10% HI-FBS, 1% pen/strep, and 6 μg/mL Blasticidin. Cells were allowed to adhere to wells of the 96-well plate (Corning Cat. No. 3595) at 37° C./5% CO2 for approximately 4 hours.
(§3) Each test mAb and control mAb was labeled by first pre-mixing the respective antibody with a pHrodo red (Fab conjugated to pH-sensitive; Thermo cat #Z25612) secondary reagent at a 3:1 dye:mAb molar ratio. A series of dilutions were prepared at 2× target concentration in growth media. The final mAb target concentration was 25 nM. […]
Coated plates contacted with the labeled mAbs were incubated at 37° C. for 30 minutes. Each plate was then read using an Incucyte apparatus, which collected images from the red and phase channels [10× objective; 3 images/well] for a 24-hour duration, with reads of plates every 30 minutes. […]

[1] = biological target: T1, full-length human CEACAM5 (Homo sapiens, UniProt P06731, T210S); experiment: SPR kinetics of progeny antibodies (BIACORE), Example 8; assay type: binding; conditions: hIgG1.3f progeny antibodies, Table 12A
T1 construct: The SPR kinetics against full-length human and cyno CEACAM5 were set up as follows
T1 sequence (P06731 35-702 T210S): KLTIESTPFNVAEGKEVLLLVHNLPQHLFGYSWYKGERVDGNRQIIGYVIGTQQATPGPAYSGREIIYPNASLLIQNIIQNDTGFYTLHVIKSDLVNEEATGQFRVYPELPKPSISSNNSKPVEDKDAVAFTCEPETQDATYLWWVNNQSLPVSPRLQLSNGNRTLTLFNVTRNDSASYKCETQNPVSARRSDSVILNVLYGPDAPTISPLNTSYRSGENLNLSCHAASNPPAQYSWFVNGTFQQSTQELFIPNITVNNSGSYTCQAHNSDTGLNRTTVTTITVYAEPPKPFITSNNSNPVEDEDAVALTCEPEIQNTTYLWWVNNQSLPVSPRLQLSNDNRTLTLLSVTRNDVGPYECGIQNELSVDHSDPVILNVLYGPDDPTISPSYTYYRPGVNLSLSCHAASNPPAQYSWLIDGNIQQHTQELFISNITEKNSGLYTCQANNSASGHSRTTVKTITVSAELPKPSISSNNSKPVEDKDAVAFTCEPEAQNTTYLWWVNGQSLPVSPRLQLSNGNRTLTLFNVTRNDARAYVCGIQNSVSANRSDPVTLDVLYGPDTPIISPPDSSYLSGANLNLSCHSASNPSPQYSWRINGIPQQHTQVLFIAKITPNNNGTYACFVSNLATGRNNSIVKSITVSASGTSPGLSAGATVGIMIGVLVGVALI
Source text: (§4) Antibody genes with single amino acid substitutions and combinations of substitutions were synthesized in IgG expression vectors, transiently transfected into HEK cells, and purified via Protein A. In addition, the framework germline reversions described above were also incorporated into the sequences of the progeny. Purified IgG1.3 CEACAM5 mAb clones were characterized using the BIACORE® for high-throughput SPR-based monoclonal characterization.
(§5) The BIACORE® instrument was primed with 1×HBSP+ running buffer (Cytiva catalog no.BR100671). The CM5 chip (Cytiva catalog no. 29149604) was equilibrated to room temperature, and the BIACORE® instrument was re-primed. A human antibody Fc capture kit (Cytiva catalog no. 29234600) was utilized for this analysis. The human antibody Fc capture reagent was immobilized to both flow cells in all 8 flow channels of the CM5 chip via amine-coupling using the following conditions. Immobilization was performed at a temperature of 25° C. The anti-human Fc capture reagent was diluted to a concentration of 25 μg/mL in acetate pH5 buffer. The chip surface was activated by injecting a mixture of 1-ethyl-3-(-3-dimethylaminopropyl) carbodiimide hydrochloride (EDC) and N-hydroxy succinimide (NHS) for 420 seconds at a rate of 10 microliters per minute (uL/min). A concentration (25 ug/mL) of anti-human Fc capture reagent was then injected on the surface for 420 seconds at a rate of 10 uL/min. The remaining chip surface was blocked by injecting ethanolamine for 420 seconds at a rate of 10 uL/min.
(§6) The SPR kinetics against full-length human and cyno CEACAM5 were set up as follows. The antibody capture was performed by diluting the antibodies to a concentration of 10 nM in HBSP+ buffer. The 10 nM mAbs were captured for 20 seconds at 5 uL/min to achieve capture levels of approximately 100RU. Analyte binding was performed by first making a titration series of full-length human and cyno CEACAM5 that were prepared (from 500 nM-0.23 nM) with three-fold dilutions in HBSP+ buffer. The association rate was 180 seconds at 30 uL/min. The dissociation rate was 600 seconds at 30 uL/min. Regeneration was performed using two injections of 3M magnesium chloride MgCl2 for 30 seconds at 30 uL/min. A data fit was performed using a 1:1 binding model with global Rmax. Rmax reflects the maximal response when all ligand is occupied.

HCT116-huCEACAM5 = biological target: T2, HCT116-huCEACAM5 (Homo sapiens, UniProt P06731, T210S); experiment: Internalization of progeny antibodies (Incucyte, pHrodo red), Example 9; assay type: cell-based; conditions: hIgG1.3 progeny, 25 nM mAb, Table 13A
T2 construct: expressed in transfected cells; host or cells: HCT-116
T2 sequence (P06731 35-676 T210S): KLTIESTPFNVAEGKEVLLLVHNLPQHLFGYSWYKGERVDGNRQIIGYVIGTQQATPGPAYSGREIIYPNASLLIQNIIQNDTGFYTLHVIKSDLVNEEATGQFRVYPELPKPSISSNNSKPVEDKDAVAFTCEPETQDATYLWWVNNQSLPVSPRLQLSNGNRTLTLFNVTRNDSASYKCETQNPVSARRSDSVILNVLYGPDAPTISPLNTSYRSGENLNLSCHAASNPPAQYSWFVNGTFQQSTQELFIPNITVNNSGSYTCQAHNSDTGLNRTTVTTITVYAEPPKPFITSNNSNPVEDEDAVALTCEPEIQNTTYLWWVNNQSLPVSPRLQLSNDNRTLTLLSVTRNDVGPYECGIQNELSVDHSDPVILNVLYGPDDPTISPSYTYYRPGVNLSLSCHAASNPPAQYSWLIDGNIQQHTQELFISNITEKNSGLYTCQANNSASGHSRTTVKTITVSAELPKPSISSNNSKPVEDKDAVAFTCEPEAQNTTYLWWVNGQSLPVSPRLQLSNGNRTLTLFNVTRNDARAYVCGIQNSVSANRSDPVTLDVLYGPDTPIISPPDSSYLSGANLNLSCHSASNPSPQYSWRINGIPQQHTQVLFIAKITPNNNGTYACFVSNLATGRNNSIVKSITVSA
Protocol: as §1, §2, §3
(§7) Coated plates contacted with the labeled mAbs were incubated at 37° C. for 30 minutes. Each plate was then read using an Incucyte apparatus, which collected images from the red and phase channels [10× objective; 3 images/well] for a 24-hour duration, with reads of plates every 30 minutes.

MKN45 = experiment: as above; assay type: cell-based; conditions: hIgG1.3 progeny, 25 nM mAb, Table 13A
Protocol: as §1
The MKN45 or Ls174T cells were seeded at 10K cells/well (50 uL).
as §2
Each test mAb and control mAb was labeled by first pre-mixing the respective antibody with a pHrodo red (Fab conjugated to pH-sensitive; Thermo cat #Z25612) secondary reagent at a 3:1 dye:mAb molar ratio. A series of dilutions were prepared at 2× target concentration in growth media. […]
as §7

full-length cyno CEACAM5 = experiment: SPR kinetics of progeny antibodies (BIACORE), Example 8; assay type: binding, cynomolgus; conditions: hIgG1.3f progeny antibodies, Table 12A; for Kd: read-out: cyCEACAM5 KD
Chain of full-length cyno CEACAM5 (as listed by the source): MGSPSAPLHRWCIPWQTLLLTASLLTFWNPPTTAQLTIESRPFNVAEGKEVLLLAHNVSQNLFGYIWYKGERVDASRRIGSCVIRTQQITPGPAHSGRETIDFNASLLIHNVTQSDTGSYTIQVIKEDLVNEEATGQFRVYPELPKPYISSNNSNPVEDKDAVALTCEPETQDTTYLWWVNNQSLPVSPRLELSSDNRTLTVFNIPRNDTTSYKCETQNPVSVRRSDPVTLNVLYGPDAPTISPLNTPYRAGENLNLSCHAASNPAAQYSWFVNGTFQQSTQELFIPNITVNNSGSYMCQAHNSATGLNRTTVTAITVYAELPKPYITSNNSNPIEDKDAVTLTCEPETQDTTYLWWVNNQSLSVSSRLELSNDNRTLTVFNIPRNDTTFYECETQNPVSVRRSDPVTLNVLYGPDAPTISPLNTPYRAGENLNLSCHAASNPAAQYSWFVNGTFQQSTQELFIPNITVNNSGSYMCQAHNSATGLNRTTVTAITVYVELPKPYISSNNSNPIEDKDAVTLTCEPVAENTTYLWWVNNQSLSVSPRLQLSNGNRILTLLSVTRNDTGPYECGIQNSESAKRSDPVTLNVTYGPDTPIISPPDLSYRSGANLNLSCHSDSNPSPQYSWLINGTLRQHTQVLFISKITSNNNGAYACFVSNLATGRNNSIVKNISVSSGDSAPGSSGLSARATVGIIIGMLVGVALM
Source text: as §4, §5, §6

Chain of HCT116-cyCEACAM5 (as listed by the source): as above

B1: MBP007: hIgG1.3f progeny of MBN001; VH SEQ ID NO: 73, VL SEQ ID NO: 74 (antibody, V domains shown)
VH: QVQLVESGGGVVQPGRSLRLSCAASGIYFSSHGMHWVRQAPGKGLEWVTFISYDGSYKSYVDSVKGRFTISRDNSKNTLYLQMNSLRAEDTAVYYCATGLTGTGANDIWGQGTMVTVSS
VL: EIVLTQSPGTLSLSPGERATLSCRASQSVSSSYLAWYQQKPGQAPRLLIYGASSRATGIPDRFSGSGSGTDFTLTISRLEPEDFAVYYCQQNKPSPYTFGQGTKLEIK
HCT116-cyCEACAM5 red/phase AUC (internalization) (HCT116-cyCEACAM5): 1.80 | huCEACAM5 ka [1]: 79600 M⁻¹ s⁻¹ | huCEACAM5 kd [1]: 0.00171 s⁻¹ | HCT116-huCEACAM5 red/phase AUC (internalization) (HCT116-huCEACAM5): 1.05 | MKN45 24 hr red/phase AUC (internalization) (MKN45): 3.28 | cyCEACAM5 ka (full-length cyno CEACAM5): 42700 M⁻¹ s⁻¹ | cyCEACAM5 kd (full-length cyno CEACAM5): 0.000924 s⁻¹ | Kd (full-length cyno CEACAM5): 21.7 nM

B2: MBP010: hIgG1.3f progeny of MBN001; VH SEQ ID NO: 79, VL SEQ ID NO: 80 (antibody, V domains shown)
VH: B1 VH with Y28T, G55S, N106F
VL: B1 VL with P94R
HCT116-cyCEACAM5 red/phase AUC (internalization) (HCT116-cyCEACAM5): 2.55 | huCEACAM5 ka [1]: 50000 M⁻¹ s⁻¹ | huCEACAM5 kd [1]: 0.00102 s⁻¹ | HCT116-huCEACAM5 red/phase AUC (internalization) (HCT116-huCEACAM5): 1.00 | MKN45 24 hr red/phase AUC (internalization) (MKN45): 3.11 | cyCEACAM5 ka (full-length cyno CEACAM5): 34000 M⁻¹ s⁻¹ | cyCEACAM5 kd (full-length cyno CEACAM5): 0.000706 s⁻¹ | Kd (full-length cyno CEACAM5): 20.8 nM
